How the values were obtained:
[1] = target: c-Src SH2; assay: SH2 binding enrichment of the phosphorylated peptide, bacterial display (enrichment ratio); higher = better substrate or ligand; peptides without Tyr show the background
[2] = target: SHP2-C SH2; assay: as above
[3] = target: Grb2 SH2 (UniProt P62993); assay: as above
[4] = target: Jak2 (UniProt O60674); assay: phosphorylation enrichment, bacterial display (enrichment ratio); higher = better substrate or ligand; peptides without Tyr show the background
[5] = target: FGFR3 (UniProt P22607); assay: as above
[6] = target: Fyn (UniProt P06241); assay: as above
[7] = system: AncSZ; assay: as above
[8] = system: c-Src; assay: as above
[9] = system: Fer (mouse); assay: as above
[10] = system: c-Abl (mouse); assay: as above
[11] = target: FGFR1 (UniProt P11362); assay: as above
[12] = target: Hck (UniProt P08631); assay: as above
[13] = target: EPHB1 (UniProt P54762); assay: as above
[14] = target: EPHB2 (UniProt P29323); assay: as above
[15] = target: Fes (UniProt P07332); assay: as above
[16] = target: MERTK (UniProt Q12866); assay: as above
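For SH2 binding enrichment of the phosphorylated peptide, bacterial display in this document: peptide library displayed on the E. coli surface as eCPX fusions, selected cells deep-sequenced, score is each peptide's frequency after selection divided by its frequency in the input.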
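For phosphorylation enrichment, bacterial display in this document: 11-residue human phosphosite peptides and single-mutation variants displayed on the E. coli surface, counted by deep sequencing, each peptide's frequency after selection divided by its frequency in the unselected input library; frequency after pTyr selection over input frequency; kinase dosed for 20-30% of maximal phosphorylation in three min.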

MERTK, sequence (Q12866 whole entry, looked up, the tested form may be a part): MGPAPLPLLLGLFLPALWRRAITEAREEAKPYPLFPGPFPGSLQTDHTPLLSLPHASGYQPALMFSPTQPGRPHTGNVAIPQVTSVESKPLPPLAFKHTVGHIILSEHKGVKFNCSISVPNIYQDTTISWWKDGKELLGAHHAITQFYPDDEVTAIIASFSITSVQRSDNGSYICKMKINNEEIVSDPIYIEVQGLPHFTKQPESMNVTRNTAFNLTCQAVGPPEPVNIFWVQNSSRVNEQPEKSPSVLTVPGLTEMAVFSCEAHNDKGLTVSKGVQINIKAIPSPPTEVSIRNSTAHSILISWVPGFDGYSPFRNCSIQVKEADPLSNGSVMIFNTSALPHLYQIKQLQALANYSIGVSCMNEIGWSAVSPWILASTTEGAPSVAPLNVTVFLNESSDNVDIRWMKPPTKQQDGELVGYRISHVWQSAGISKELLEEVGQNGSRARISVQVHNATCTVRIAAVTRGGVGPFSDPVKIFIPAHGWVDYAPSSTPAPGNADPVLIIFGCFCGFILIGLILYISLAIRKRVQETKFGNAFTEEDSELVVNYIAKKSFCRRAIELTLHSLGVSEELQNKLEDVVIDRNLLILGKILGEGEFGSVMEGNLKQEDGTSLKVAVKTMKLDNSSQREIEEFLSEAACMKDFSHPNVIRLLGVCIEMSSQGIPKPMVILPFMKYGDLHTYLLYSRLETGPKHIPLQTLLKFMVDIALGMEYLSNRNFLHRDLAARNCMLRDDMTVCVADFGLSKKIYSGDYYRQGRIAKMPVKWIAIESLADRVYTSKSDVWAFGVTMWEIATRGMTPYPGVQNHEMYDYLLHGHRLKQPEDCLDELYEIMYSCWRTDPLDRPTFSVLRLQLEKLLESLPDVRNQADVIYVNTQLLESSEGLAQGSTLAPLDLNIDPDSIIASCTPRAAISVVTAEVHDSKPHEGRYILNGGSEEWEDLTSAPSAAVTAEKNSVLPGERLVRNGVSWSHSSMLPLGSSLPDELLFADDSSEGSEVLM
EPHB2, sequence (P29323 whole entry, looked up): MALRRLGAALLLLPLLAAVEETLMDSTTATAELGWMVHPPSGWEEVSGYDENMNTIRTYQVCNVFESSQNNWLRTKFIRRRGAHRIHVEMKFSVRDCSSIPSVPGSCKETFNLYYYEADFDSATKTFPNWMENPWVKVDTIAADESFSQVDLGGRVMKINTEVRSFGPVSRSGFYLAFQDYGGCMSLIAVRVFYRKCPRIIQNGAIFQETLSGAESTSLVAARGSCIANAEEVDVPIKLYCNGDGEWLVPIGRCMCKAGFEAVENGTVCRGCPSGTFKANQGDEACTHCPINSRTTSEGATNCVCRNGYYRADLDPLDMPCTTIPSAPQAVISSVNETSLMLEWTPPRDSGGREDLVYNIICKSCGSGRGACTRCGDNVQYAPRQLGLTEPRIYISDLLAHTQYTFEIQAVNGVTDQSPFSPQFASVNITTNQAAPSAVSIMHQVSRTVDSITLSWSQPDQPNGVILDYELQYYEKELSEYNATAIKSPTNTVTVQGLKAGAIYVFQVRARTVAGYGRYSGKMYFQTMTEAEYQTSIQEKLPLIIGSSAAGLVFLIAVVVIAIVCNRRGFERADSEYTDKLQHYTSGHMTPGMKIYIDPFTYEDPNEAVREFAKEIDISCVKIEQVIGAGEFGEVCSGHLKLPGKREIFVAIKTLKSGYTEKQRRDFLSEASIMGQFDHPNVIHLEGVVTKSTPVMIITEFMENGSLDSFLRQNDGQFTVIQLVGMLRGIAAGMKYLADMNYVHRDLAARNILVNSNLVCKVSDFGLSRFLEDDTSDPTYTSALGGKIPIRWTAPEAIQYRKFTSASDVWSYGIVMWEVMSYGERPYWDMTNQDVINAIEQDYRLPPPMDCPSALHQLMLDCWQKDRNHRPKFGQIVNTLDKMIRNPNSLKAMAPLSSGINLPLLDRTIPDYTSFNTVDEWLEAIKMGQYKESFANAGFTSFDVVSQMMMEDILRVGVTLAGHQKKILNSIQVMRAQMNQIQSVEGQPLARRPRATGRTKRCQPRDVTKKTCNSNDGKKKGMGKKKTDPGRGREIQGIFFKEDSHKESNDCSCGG
EPHB1, sequence (P54762 whole entry, looked up): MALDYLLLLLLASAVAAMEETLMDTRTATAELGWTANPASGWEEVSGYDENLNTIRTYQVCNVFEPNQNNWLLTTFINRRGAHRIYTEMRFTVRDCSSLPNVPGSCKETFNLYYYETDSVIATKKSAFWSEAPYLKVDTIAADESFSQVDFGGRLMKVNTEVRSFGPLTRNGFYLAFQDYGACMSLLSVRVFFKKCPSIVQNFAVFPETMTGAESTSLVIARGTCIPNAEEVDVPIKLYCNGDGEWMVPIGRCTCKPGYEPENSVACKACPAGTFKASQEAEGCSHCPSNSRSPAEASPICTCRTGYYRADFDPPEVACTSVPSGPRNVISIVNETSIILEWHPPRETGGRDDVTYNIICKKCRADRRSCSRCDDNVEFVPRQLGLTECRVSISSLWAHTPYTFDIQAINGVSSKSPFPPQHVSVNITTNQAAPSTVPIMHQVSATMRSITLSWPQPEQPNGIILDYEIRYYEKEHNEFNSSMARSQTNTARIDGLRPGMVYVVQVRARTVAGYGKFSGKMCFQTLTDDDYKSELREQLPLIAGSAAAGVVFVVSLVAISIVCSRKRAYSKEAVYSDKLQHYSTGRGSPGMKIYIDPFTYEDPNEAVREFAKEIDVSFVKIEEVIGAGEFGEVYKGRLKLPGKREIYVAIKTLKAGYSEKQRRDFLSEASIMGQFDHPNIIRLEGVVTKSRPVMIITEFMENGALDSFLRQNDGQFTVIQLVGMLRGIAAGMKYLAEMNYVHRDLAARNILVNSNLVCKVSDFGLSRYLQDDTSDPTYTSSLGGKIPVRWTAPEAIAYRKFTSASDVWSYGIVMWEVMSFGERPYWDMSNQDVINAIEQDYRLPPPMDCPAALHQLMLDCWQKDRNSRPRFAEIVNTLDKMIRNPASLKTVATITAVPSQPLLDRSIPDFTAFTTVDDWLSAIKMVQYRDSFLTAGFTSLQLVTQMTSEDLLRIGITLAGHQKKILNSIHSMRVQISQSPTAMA
FGFR1, sequence (P11362 whole entry, looked up): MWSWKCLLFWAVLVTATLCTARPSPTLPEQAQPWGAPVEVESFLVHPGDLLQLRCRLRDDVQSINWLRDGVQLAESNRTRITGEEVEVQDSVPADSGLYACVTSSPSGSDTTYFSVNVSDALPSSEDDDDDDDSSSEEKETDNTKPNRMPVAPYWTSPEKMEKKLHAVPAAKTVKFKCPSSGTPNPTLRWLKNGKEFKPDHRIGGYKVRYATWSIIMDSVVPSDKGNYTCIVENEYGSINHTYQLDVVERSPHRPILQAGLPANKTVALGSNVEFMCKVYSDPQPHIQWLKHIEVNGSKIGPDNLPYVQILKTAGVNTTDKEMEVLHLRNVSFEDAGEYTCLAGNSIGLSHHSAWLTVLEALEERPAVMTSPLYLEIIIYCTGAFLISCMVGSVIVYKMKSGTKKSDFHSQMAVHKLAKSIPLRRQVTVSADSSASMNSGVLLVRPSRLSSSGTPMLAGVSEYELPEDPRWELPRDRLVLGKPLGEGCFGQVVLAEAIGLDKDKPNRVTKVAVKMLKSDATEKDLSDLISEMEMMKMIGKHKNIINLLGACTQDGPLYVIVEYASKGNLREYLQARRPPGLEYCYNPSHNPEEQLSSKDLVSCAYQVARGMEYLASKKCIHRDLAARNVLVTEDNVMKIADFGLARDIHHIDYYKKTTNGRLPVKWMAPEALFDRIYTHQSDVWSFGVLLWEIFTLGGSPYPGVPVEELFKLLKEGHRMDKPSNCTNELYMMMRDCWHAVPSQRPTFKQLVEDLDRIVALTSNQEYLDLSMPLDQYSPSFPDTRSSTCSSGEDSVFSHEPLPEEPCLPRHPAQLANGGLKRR
FGFR3, sequence (P22607 whole entry, looked up): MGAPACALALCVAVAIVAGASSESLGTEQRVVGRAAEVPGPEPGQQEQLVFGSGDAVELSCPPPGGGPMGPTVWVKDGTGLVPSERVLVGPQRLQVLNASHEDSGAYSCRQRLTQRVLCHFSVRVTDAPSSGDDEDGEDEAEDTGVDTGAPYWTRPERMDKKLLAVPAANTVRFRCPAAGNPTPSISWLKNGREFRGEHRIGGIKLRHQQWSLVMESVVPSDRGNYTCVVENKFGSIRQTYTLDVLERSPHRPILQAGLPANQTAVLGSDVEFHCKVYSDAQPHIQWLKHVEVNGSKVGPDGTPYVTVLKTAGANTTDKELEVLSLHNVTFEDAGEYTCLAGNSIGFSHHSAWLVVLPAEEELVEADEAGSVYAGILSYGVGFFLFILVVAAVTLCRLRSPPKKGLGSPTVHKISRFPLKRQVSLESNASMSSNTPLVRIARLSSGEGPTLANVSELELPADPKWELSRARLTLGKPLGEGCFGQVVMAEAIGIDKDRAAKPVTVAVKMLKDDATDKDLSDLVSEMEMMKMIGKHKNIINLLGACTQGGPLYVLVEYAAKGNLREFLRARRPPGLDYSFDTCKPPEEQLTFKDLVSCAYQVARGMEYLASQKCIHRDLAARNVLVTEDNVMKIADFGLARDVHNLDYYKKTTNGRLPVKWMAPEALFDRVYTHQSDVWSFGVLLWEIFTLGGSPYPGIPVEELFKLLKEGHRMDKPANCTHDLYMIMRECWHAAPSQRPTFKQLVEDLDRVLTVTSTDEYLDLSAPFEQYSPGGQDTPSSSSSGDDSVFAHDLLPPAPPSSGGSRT

SH2 binding enrichment [1]	SH2 binding enrichment [2]	SH2 binding enrichment [3]	Sequence	phosphorylation enrichment [4]	phosphorylation enrichment [5]	phosphorylation enrichment [6]	phosphorylation enrichment [7]	phosphorylation enrichment [8]	phosphorylation enrichment [9]	phosphorylation enrichment [10]	phosphorylation enrichment [11]	phosphorylation enrichment [12]	phosphorylation enrichment [13]	phosphorylation enrichment [14]	phosphorylation enrichment [15]	phosphorylation enrichment [16]
1.3	1.74	1.95	VIIVLYFSLWK [SLC6A2_Y249_V245I]	0.702	0.548	0.375	0.774	0.386	0.471	0.693	0.462	0.369	0.363	0.371	0.631	0.354
0.607	0.577	0.864	VITDFYVDMKF [MPP4_Y567_YF]	1.27	1.36	0.457	1.23	0.503	0.925	0.727	1.42	0.624	1.31	0.824	1.32	0.52
1.06	1.16	1.28	VLALWYFFLTH [ZDHHC23_Y127_YF]	2.27	1.76	0.614	1.42	0.602	0.644	1.01	2.08	0.682	0.963	0.676	1.76	0.882
0.985	1.03	0.936	VLALWYFFLTN [ZDHHC23_Y127_H132N_YF]	1.91	1.94	0.535	1.16	0.654	0.595	0.904	2.05	0.62	0.746	0.63	1.68	0.963
2.25	0.917	3.35	VLNDAYENLTR [SYNE2_Y3255]	0.665	0.761	0.524	1.08	0.391	0.581	0.605	0.559	0.521	0.531	0.759	0.859	0.379
0.669	0.555	0.851	VMLENYSNLVS [ZFP69_Y109]	0.49	0.608	0.563	0.819	0.363	0.556	0.39	0.654	0.49	1.49	1.24	0.781	0.375
0.675	0.697	1.07	VNKIYYPDFIV [LIG3_Y768]	0.666	7.46	1.09	1.23	1.48	0.494	0.596	8.82	1.25	0.621	0.516	0.918	2.72
2.15	0.872	0.979	VNTMLYEKFTY [TEK_Y1108_T1106M]	0.811	0.902	6.38	1.23	5.53	10.4	1.82	0.856	7.18	8.2	6.33	1.03	7.49
0.413	0.727	0.798	VQQVIYATGAL [MYH7_Y422]	1.38	0.798	6.98	0.932	5.97	0.71	25.3	0.488	7.57	0.96	0.986	1	3.08
0.583	0.754	0.813	VRFTEYETQVK [TARDBP_Y155]	0.761	0.542	0.4	0.791	0.406	0.431	0.629	0.413	0.519	0.53	1.01	0.896	0.401
0.63	0.915	0.898	VRTGIYHGGKP [PIK3CA_Y361_E365K]	0.464	0.275	0.309	0.451	0.318	0.359	0.501	0.456	0.713	0.268	0.336	0.499	0.294
0.331	1.22	0.94	VSGIPYGQPKQ [NEU1_Y251]	0.522	0.437	0.339	0.494	0.434	0.44	0.422	0.415	0.419	0.349	0.323	0.57	0.336
0.337	0.674	0.702	VSLEAYCKHKF [RXRA_Y403_A398V_YF]	1.11	0.568	0.399	0.949	0.556	0.411	0.898	0.392	0.353	0.571	0.509	1.07	0.443
0.89	0.649	0.662	VTVLDYEKIGK [SYT1_Y365_D366E]	0.77	0.561	0.479	0.783	0.355	0.412	0.54	0.456	0.573	1.07	0.524	0.868	0.393
2.22	1.43	0.781	VVAHHYSFAPD [TNS3_Y601_Q600H]	0.707	0.674	0.532	0.646	0.643	0.499	0.583	0.683	0.453	0.426	0.502	0.882	0.593
0.83	0.923	1.03	VVQGIYGFHHF [UFSP2_Y285_YF]	0.846	0.502	10.1	0.886	7.39	16.3	5.3	0.693	8.93	1.75	5.04	1.62	9.74
0.588	0.757	1.06	VVQGIYGFHHH [UFSP2_Y285_Y290H_YF]	0.538	0.496	11.7	0.685	9.09	11.7	2.36	0.523	10.8	0.65	1.19	0.776	9.65

Second part, the sequence before the results:

Sequence	SH2 binding enrichment [1]	SH2 binding enrichment [2]	SH2 binding enrichment [3]	phosphorylation enrichment [4]	phosphorylation enrichment [5]	phosphorylation enrichment [6]	phosphorylation enrichment [7]	phosphorylation enrichment [8]	phosphorylation enrichment [9]	phosphorylation enrichment [10]	phosphorylation enrichment [11]	phosphorylation enrichment [12]	phosphorylation enrichment [13]	phosphorylation enrichment [14]	phosphorylation enrichment [15]	phosphorylation enrichment [16]
VHLFAYDWISI [BEST1_Y227_G222V_YF]	0.972	1.36	1.3	1.04	1.17	0.589	1.27	0.651	10.4	0.69	1.41	0.804	1.06	0.868	1.38	4.12
VIEFSYTSADG [DHCR7_Y382_C380Y_YF]	1.97	0.858	0.87	0.764	0.652	0.442	0.944	0.341	0.499	0.608	0.444	0.503	0.562	0.504	1.16	0.415
VIKDKYPKARF [APTX_Y209_YF]	1.04	1.25	1.15	0.772	0.504	0.294	0.455	0.408	0.288	0.646	0.425	0.332	0.339	0.297	0.672	0.374
VLPIDYFFPPQ [AR_Y552_YF]	0.696	0.882	0.986	0.969	9.06	0.574	2.91	0.522	0.35	0.502	11.5	0.604	0.708	0.914	0.82	0.459
VNYGAYINDFK [GLB1_Y488]	4.76	0.88	10.3	0.665	0.593	0.912	0.773	0.761	0.402	0.515	0.469	0.454	0.709	1.22	0.86	0.373
VNYGAYINNFK [GLB1_Y488_D491N]	1.72	1.2	1.54	0.932	0.513	0.76	0.677	0.876	0.423	0.483	0.453	0.631	0.743	1.17	0.723	0.429
VPFAQYLAMNK [HARS1_Y138_R137Q]	0.533	0.798	0.959	0.838	0.536	0.458	0.685	0.44	0.406	0.504	0.494	0.54	0.488	0.431	0.639	0.403
VSNFNYFYHRE [KCNA1_Y413]	0.795	1.9	1.07	0.943	1.86	0.433	1.01	0.512	0.404	0.874	1.66	0.501	0.614	0.549	0.999	0.47
VSTAVYKRFPS [BEST1_Y148]	0.414	0.647	0.748	0.593	0.463	0.379	0.512	0.395	0.395	0.668	0.498	0.426	0.348	0.382	0.733	0.526
VTGWGYRKLRD [F11_Y521]	0.505	0.472	0.798	0.655	0.419	0.463	0.792	0.479	0.385	0.477	0.392	0.42	0.364	0.517	0.703	0.51
VTQEPYELYCE [CBL_Y368_Q367P]	0.695	0.861	1.01	0.999	0.794	0.761	1.65	1.24	0.86	0.74	0.554	0.717	0.763	0.621	1.13	0.461
VTQEQYELHCE [CBL_Y368_Y371H]	0.571	0.48	0.656	1.1	0.874	0.576	1.2	0.52	0.736	0.791	0.542	0.479	0.708	0.601	1.35	0.37
WASQRYGRELR [BAD_Y110_A107S]	0.324	0.504	0.861	0.644	0.414	0.624	0.621	0.501	0.332	0.728	0.39	0.4	0.484	0.538	0.84	0.516
WIGRKYKKVRF [F8_Y442_R437W]	0.388	0.456	1.28	0.571	0.54	0.552	0.567	0.619	0.492	0.676	0.506	0.546	0.547	0.518	0.611	0.527
WNDLDYMDSRR [GAA_Y407]	0.553	0.622	0.936	1.4	0.674	0.451	1.34	0.646	0.427	0.864	0.59	0.471	0.698	0.532	1.26	0.371
WQQQSYLDLGI [CTNNB1_Y30_S33L]	0.607	0.766	1.03	1.35	1.36	0.545	0.831	0.517	0.515	0.685	1.76	0.478	0.719	0.593	0.918	0.511

Source: the supplement of paper PMC10065799, “High-throughput profiling of sequence recognition by tyrosine kinases and SH2 domains using bacterial peptide display” (eLife, 2023)
